The values that follow come from patent publication US12295987B2, “Method of using a GIP/GLP1 co-agonist for diabetes” (Eli Lilly and Company, priority 2018, dated 2025).

Numbered stars: 1 amine (or outer) side, 2 acyl side, 3 side chain; on linkers, the order of the positions; unused ones are H or OH. Square brackets hold non-standard residues; d marks the D form. Side chains are listed from the residue outwards. Ends that are not written are not given here. * marks the point of attachment. C20 diacid = O=C(O)CCCCCCCCCCCCCCCCCCC(=O)*; γGlu = O=C(O)[C@H](CCC(=O)[*:2])N[*:1]; AEEA = NCCOCCOCC(=O)O; Aib = CC(C)(N)C(=O)O

For the assay, the target named is T1, human gastric inhibitory peptide receptor (hGIPR) (Homo sapiens, UniProt P48546).
T1 construct: expressed in transfected cells; host or cells: HEK293
T1 sequence (P48546 22-466): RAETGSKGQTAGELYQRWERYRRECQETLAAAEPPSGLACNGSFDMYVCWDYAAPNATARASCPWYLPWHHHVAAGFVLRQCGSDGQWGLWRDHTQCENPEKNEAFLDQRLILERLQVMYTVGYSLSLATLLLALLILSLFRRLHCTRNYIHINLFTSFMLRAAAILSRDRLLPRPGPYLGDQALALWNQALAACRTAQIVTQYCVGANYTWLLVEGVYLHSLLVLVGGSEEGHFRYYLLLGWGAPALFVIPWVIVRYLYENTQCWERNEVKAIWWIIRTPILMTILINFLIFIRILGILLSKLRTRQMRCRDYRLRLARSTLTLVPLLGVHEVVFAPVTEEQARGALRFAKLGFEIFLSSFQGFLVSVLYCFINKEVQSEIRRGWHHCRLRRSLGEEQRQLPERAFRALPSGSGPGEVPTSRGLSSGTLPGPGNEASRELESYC
Briefly: cAMP pharmacological functional assay in presence of 0.1% casein, hGIPR. The following applies: ratio of hGIPR to hGLP1R cAMP EC50 ratios. The format is cell-based.
In the case of “Y-Aib-EGTFTSDYSI-αMeL-LDTK((2-[2-(2-Amino-ethoxy)-ethoxy]-acetyl)2-(γGlu)-CO—(CH2)18—CO2H)AQ-Aib-AFIEYLIEGG-NH2 (YXEGTFTSDYSIXLDTKAQXAFIEYLIEGG; Aib, αMeL; K lipidated C20 diacid-γGlu-AEEA2; C-terminal amide; (2)..(2) Xaa at position 2 is Aib; (13)..(13) Xaa at position 13 is alpha-methyl-Leu; MOD_RES (17)..(17) Lys at position 17 is chemically modified by conjugation of the epsilon-amino group of the Lys side chain with (2-[2-(2-amino-ethoxy)-ethoxy]-acetyl)2-(gamma-Glu)-CO-(CH2)18- CO2H; (20)..(20) Xaa at position 20 is Aib; MOD_RES (30)..(30) Gly at position 30 is amidated) [Peptide 65]”, the “[hGIPR/hGLP1R] EC50 Ratio” value is 4.46.

Take “Y-Aib-EGTFTSDYSIK((2-[2-(2-Amino-ethoxy)-ethoxy]-acetyl)2-(γGlu)-CO—(CH2)18—CO2H)LDKIAQ-Aib-AFIEYLIEGGPSSGAPPPS-NH2 (Y[Aib]EGTFTSDYSIK([AEEA-AEEA-γGlu-C20 diacid])LDKIAQ[Aib]AFIEYLIEGGPSSGAPPPS-NH2; N-terminus assumed; SMILES CC[C@H](C)[C@H](NC(=O)[C@H](CCCCN)NC(=O)[C@H](CC(=O)O)NC(=O)[C@H](CC(C)C)NC(=O)[C@H](CCCCNC(=O)COCCOCCNC(=O)COCCOCCNC(=O)CC[C@H](NC(=O)CCCCCCCCCCCCCCCCCCC(=O)O)C(=O)O)NC(=O)[C@@H](NC(=O)[C@H](CO)NC(=O)[C@H](Cc1ccc(O)cc1)NC(=O)[C@H](CC(=O)O)NC(=O)[C@H](CO)NC(=O)[C@@H](NC(=O)[C@H](Cc1ccccc1)NC(=O)[C@@H](NC(=O)CNC(=O)[C@H](CCC(=O)O)NC(=O)C(C)(C)NC(=O)[C@@H](N)Cc1ccc(O)cc1)[C@@H](C)O)[C@@H](C)O)[C@@H](C)CC)C(=O)N[C@@H](C)C(=O)N[C@@H](CCC(N)=O)C(=O)NC(C)(C)C(=O)N[C@@H](C)C(=O)N[C@@H](Cc1ccccc1)C(=O)N[C@H](C(=O)N[C@@H](CCC(=O)O)C(=O)N[C@@H](Cc1ccc(O)cc1)C(=O)N[C@@H](CC(C)C)C(=O)N[C@H](C(=O)N[C@@H](CCC(=O)O)C(=O)NCC(=O)NCC(=O)N1CCC[C@H]1C(=O)N[C@@H](CO)C(=O)N[C@@H](CO)C(=O)NCC(=O)N[C@@H](C)C(=O)N1CCC[C@H]1C(=O)N1CCC[C@H]1C(=O)N1CCC[C@H]1C(=O)N[C@@H](CO)C(N)=O)[C@@H](C)CC)[C@@H](C)CC) [Peptide 26]”: the “[hGIPR/hGLP1R] EC50 Ratio” value came out at 2.46.

Take “Y-Aib-EGTFTSDYSILLDK((2-[2-(2-Amino-ethoxy)-ethoxy]-acetyl)2-(γGlu)-CO—(CH2)18—CO2H)IAQ-Aib-AFIEYLIEGGPSSGAPPPS-NH2 (Y[Aib]EGTFTSDYSILLDK([AEEA-AEEA-γGlu-C20 diacid])IAQ[Aib]AFIEYLIEGGPSSGAPPPS-NH2; N-terminus assumed; SMILES CC[C@H](C)[C@H](NC(=O)[C@H](CCCCNC(=O)COCCOCCNC(=O)COCCOCCNC(=O)CC[C@H](NC(=O)CCCCCCCCCCCCCCCCCCC(=O)O)C(=O)O)NC(=O)[C@H](CC(=O)O)NC(=O)[C@H](CC(C)C)NC(=O)[C@H](CC(C)C)NC(=O)[C@@H](NC(=O)[C@H](CO)NC(=O)[C@H](Cc1ccc(O)cc1)NC(=O)[C@H](CC(=O)O)NC(=O)[C@H](CO)NC(=O)[C@@H](NC(=O)[C@H](Cc1ccccc1)NC(=O)[C@@H](NC(=O)CNC(=O)[C@H](CCC(=O)O)NC(=O)C(C)(C)NC(=O)[C@@H](N)Cc1ccc(O)cc1)[C@@H](C)O)[C@@H](C)O)[C@@H](C)CC)C(=O)N[C@@H](C)C(=O)N[C@@H](CCC(N)=O)C(=O)NC(C)(C)C(=O)N[C@@H](C)C(=O)N[C@@H](Cc1ccccc1)C(=O)N[C@H](C(=O)N[C@@H](CCC(=O)O)C(=O)N[C@@H](Cc1ccc(O)cc1)C(=O)N[C@@H](CC(C)C)C(=O)N[C@H](C(=O)N[C@@H](CCC(=O)O)C(=O)NCC(=O)NCC(=O)N1CCC[C@H]1C(=O)N[C@@H](CO)C(=O)N[C@@H](CO)C(=O)NCC(=O)N[C@@H](C)C(=O)N1CCC[C@H]1C(=O)N1CCC[C@H]1C(=O)N1CCC[C@H]1C(=O)N[C@@H](CO)C(N)=O)[C@@H](C)CC)[C@@H](C)CC) [Peptide 29]”: the “[hGIPR/hGLP1R] EC50 Ratio” value is reported as 7.99.

For the substance “Y-Aib-EGTFTSDYSILLDKIAK((2-[2-(2-Amino-ethoxy)-ethoxy]-acetyl)2-(γGlu)-CO—(CH2)18—CO2H)-Aib-AFIEYLIEGGPSSGAPPPS-NH2 (Y[Aib]EGTFTSDYSILLDKIAK([AEEA-AEEA-γGlu-C20 diacid])[Aib]AFIEYLIEGGPSSGAPPPS-NH2; N-terminus assumed; SMILES CC[C@H](C)[C@H](NC(=O)[C@H](CCCCN)NC(=O)[C@H](CC(=O)O)NC(=O)[C@H](CC(C)C)NC(=O)[C@H](CC(C)C)NC(=O)[C@@H](NC(=O)[C@H](CO)NC(=O)[C@H](Cc1ccc(O)cc1)NC(=O)[C@H](CC(=O)O)NC(=O)[C@H](CO)NC(=O)[C@@H](NC(=O)[C@H](Cc1ccccc1)NC(=O)[C@@H](NC(=O)CNC(=O)[C@H](CCC(=O)O)NC(=O)C(C)(C)NC(=O)[C@@H](N)Cc1ccc(O)cc1)[C@@H](C)O)[C@@H](C)O)[C@@H](C)CC)C(=O)N[C@@H](C)C(=O)N[C@@H](CCCCNC(=O)COCCOCCNC(=O)COCCOCCNC(=O)CC[C@H](NC(=O)CCCCCCCCCCCCCCCCCCC(=O)O)C(=O)O)C(=O)NC(C)(C)C(=O)N[C@@H](C)C(=O)N[C@@H](Cc1ccccc1)C(=O)N[C@H](C(=O)N[C@@H](CCC(=O)O)C(=O)N[C@@H](Cc1ccc(O)cc1)C(=O)N[C@@H](CC(C)C)C(=O)N[C@H](C(=O)N[C@@H](CCC(=O)O)C(=O)NCC(=O)NCC(=O)N1CCC[C@H]1C(=O)N[C@@H](CO)C(=O)N[C@@H](CO)C(=O)NCC(=O)N[C@@H](C)C(=O)N1CCC[C@H]1C(=O)N1CCC[C@H]1C(=O)N1CCC[C@H]1C(=O)N[C@@H](CO)C(N)=O)[C@@H](C)CC)[C@@H](C)CC) [Peptide 31]”, the “[hGIPR/hGLP1R] EC50 Ratio” value amounted to 6.44.

As for “Y-Aib-EGTFTSDYSILLDKIAQ-Aib-AFIEYLIEGGPK((2-[2-(2-Amino-ethoxy)-ethoxy]-acetyl)2-(γGlu)-CO—(CH2)18—CO2H)SGAPPPS-NH2 (Y[Aib]EGTFTSDYSILLDKIAQ[Aib]AFIEYLIEGGPK([AEEA-AEEA-γGlu-C20 diacid])SGAPPPS-NH2; N-terminus assumed; SMILES CC[C@H](C)[C@H](NC(=O)[C@H](CCCCN)NC(=O)[C@H](CC(=O)O)NC(=O)[C@H](CC(C)C)NC(=O)[C@H](CC(C)C)NC(=O)[C@@H](NC(=O)[C@H](CO)NC(=O)[C@H](Cc1ccc(O)cc1)NC(=O)[C@H](CC(=O)O)NC(=O)[C@H](CO)NC(=O)[C@@H](NC(=O)[C@H](Cc1ccccc1)NC(=O)[C@@H](NC(=O)CNC(=O)[C@H](CCC(=O)O)NC(=O)C(C)(C)NC(=O)[C@@H](N)Cc1ccc(O)cc1)[C@@H](C)O)[C@@H](C)O)[C@@H](C)CC)C(=O)N[C@@H](C)C(=O)N[C@@H](CCC(N)=O)C(=O)NC(C)(C)C(=O)N[C@@H](C)C(=O)N[C@@H](Cc1ccccc1)C(=O)N[C@H](C(=O)N[C@@H](CCC(=O)O)C(=O)N[C@@H](Cc1ccc(O)cc1)C(=O)N[C@@H](CC(C)C)C(=O)N[C@H](C(=O)N[C@@H](CCC(=O)O)C(=O)NCC(=O)NCC(=O)N1CCC[C@H]1C(=O)N[C@@H](CCCCNC(=O)COCCOCCNC(=O)COCCOCCNC(=O)CC[C@H](NC(=O)CCCCCCCCCCCCCCCCCCC(=O)O)C(=O)O)C(=O)N[C@@H](CO)C(=O)NCC(=O)N[C@@H](C)C(=O)N1CCC[C@H]1C(=O)N1CCC[C@H]1C(=O)N1CCC[C@H]1C(=O)N[C@@H](CO)C(N)=O)[C@@H](C)CC)[C@@H](C)CC) [Peptide 41]”, the “[hGIPR/hGLP1R] EC50 Ratio” value amounted to 10.00.

Consider “Y-Aib-EGTFTSDYSILLDKIAQ-Aib-AFIEYLIEGGPSSGAPK((2-[2-(2-Amino-ethoxy)-ethoxy]-acetyl)2-(γGlu)-CO—(CH2)18—CO2H)PS-NH2 (Y[Aib]EGTFTSDYSILLDKIAQ[Aib]AFIEYLIEGGPSSGAPK([AEEA-AEEA-γGlu-C20 diacid])PS-NH2; N-terminus assumed; SMILES CC[C@H](C)[C@H](NC(=O)[C@H](CCCCN)NC(=O)[C@H](CC(=O)O)NC(=O)[C@H](CC(C)C)NC(=O)[C@H](CC(C)C)NC(=O)[C@@H](NC(=O)[C@H](CO)NC(=O)[C@H](Cc1ccc(O)cc1)NC(=O)[C@H](CC(=O)O)NC(=O)[C@H](CO)NC(=O)[C@@H](NC(=O)[C@H](Cc1ccccc1)NC(=O)[C@@H](NC(=O)CNC(=O)[C@H](CCC(=O)O)NC(=O)C(C)(C)NC(=O)[C@@H](N)Cc1ccc(O)cc1)[C@@H](C)O)[C@@H](C)O)[C@@H](C)CC)C(=O)N[C@@H](C)C(=O)N[C@@H](CCC(N)=O)C(=O)NC(C)(C)C(=O)N[C@@H](C)C(=O)N[C@@H](Cc1ccccc1)C(=O)N[C@H](C(=O)N[C@@H](CCC(=O)O)C(=O)N[C@@H](Cc1ccc(O)cc1)C(=O)N[C@@H](CC(C)C)C(=O)N[C@H](C(=O)N[C@@H](CCC(=O)O)C(=O)NCC(=O)NCC(=O)N1CCC[C@H]1C(=O)N[C@@H](CO)C(=O)N[C@@H](CO)C(=O)NCC(=O)N[C@@H](C)C(=O)N1CCC[C@H]1C(=O)N[C@@H](CCCCNC(=O)COCCOCCNC(=O)COCCOCCNC(=O)CC[C@H](NC(=O)CCCCCCCCCCCCCCCCCCC(=O)O)C(=O)O)C(=O)N1CCC[C@H]1C(=O)N[C@@H](CO)C(N)=O)[C@@H](C)CC)[C@@H](C)CC) [Peptide 46]”, for which the “[hGIPR/hGLP1R] EC50 Ratio” value is listed as 8.54.
